Experimental data taken from article PMC9098913, “In vitro reconstitution of Escherichia coli divisome activation” (Nature Communications, 2022).

Assays:
[1] = tested on: FtsA self-interaction; assay: FRET (acceptor photobleaching) self-interaction of FtsA on supported lipid bilayers; assay type: binding, E. coli
Text: To directly measure FtsA self-interaction in our fluorescence microscopy experiments, we established a FRET (Förster resonance energy transfer)-based assay using FtsA labelled with either Cy5 (acceptor) or Cy3 (donor). […] We then decided to use this approach to measure the degree of FtsA self-interaction on supported lipid membranes by quantifying the increase in donor fluorescence after photobleaching the acceptor fluorophore[30]–[32] (Fig. 3c–e and Fig. S3d). […] As a negative control, we also attached the Hexahistidine-SUMO-tag (His-SUMO) labelled with Cy5 and Cy3 to membranes with an increasing density of Tris-NTA lipids.
Equimolar concentrations of Cy3- and Cy5-labelled FtsA, supplemented with 20% unlabelled FtsA were used to study FRET and FRAP. Five pre-bleach frames were acquired, followed by acceptor photobleaching of a rectangular ROI with 40% 641 nm laser power and a dwell size of 1 µs/pixel, 75% overlapping lines. The recovery of the signal or the increase in donor intensity were measured with either two frames or one frame per second.
(§1) Bleaching the acceptor dye leads to an increase in the donor intensity, which can be used to quantify the Foerster Resonance energy transfer (FRET)[48]. FRET efficiency was quantified with E%=Ipost/Ipost+Ipre⋅100 , where Ipost is the intensity of the […] and Ipre is the […]. […] To extract the contribution of both processes, we adjusted a routine recently published by Gerganova et al.[33]. In short, the code provides the contribution of both modes of recovery by analysing the shape of the fluorescence recovery profile. […] Contribution of diffusion leads to a change of the slope of the outer borders of the bleached region (S4h right). Thus, by measuring the change of the slope of the border recovery, diffusion and simple on/off binding can be distinguished. We developed “FRAPdiff”, a graphical user interface, which uses the original fit routine by David Rutkowski. It can be used directly on.tiff movies with annotated bleach regions as ImageJ ROIs. In addition, we added optional bleach correction, user selectable projection axis (x or y), and optional mirroring of the recovery profiles, if bleaching was not symmetric. The original fit routine for estimating the recovery and diffusion dynamics can be found at https://github.com/davidmrutkowski/1DReflectingDiffusion. FRAPdiff is available at 10.5281/zenodo.6400639[49] under the GPLv3 open-source license.

[2] = tested on: FtsA self-interaction; assay: FRET self-interaction of His-tagged FtsAs (and His-SUMO control) on Tris-NTA membranes; assay type: binding, E. coli; conditions: without FtsZ
Procedure: (§2) To study colocalization of His-tagged variants of FtsA, 0.5–1 µM of Cy5 labelled His-tagged FtsAs were added to the chamber, incubated for 20 min and washed 6x with reaction buffer. […] To control the density of membrane-bound FtsA, SUVs without and with Tris-NTA lipids were mixed to obtain the respective Tris-NTA concentrations. To perform FRET/FRAP experiments, equimolar concentrations of Cy3 and Cy5 labelled His-tagged FtsAs (total 0.5–1 µM) or His-SUMO-Cys were added to a chamber and treated as above. […] FRAP experiments were performed as described before.
as §1

[3] = Diffusion coefficient of His-tagged FtsAs and His-SUMO on Tris-NTA membranes (FRAP); conditions: without FtsZ
Procedure: as §2, §1

[4] = target: the molecule itself; assay: FRET or BRET; acceptor photobleaching; equimolar Cy3- and Cy5-labelled His-tagged protein (total 0.5-1 µM, washed) attached to bilayers with varied Tris-NTA lipid density

For `Nc1ncnc2c1ncn2[C@@H]1O[C@H](CO[P@](=O)(O)O[P@](=O)(O)O[P@@](=O)(O)S)[C@@H](O)[C@H]1O` [ATPγS, reference compound], the “effect of replacing ATP with ATPγS on membrane-binding, self-interaction or membrane-binding dynamics” value [1] was “no significant effect”.

B1: His6-SUMO (protein, UniProt Q12306 2-98, looked up)
Ubiquitin-like protein SMT3: SDSEVNQEAKPEVKPEVKPETHINLKVSDGSSEIFFKIKKTTPLRRLMEAFAKRQGKEMDSLRFLYDGIRIQADQTPEDLDMEDNDIIEAHREQIGG
modifications: His6 tag
With B1 the FRET efficiency ([2]; 0.1% Tris NTA, Exp1) was 1.02%, the FRET efficiency ([2]; 0.1% Tris NTA, Exp2) was 1.41% and the FRET efficiency ([2]; 0.1% Tris NTA, mean, n = 2) was 1.21%. For the same molecule, the FRET efficiency ([2]; 0.4% Tris NTA, Exp1) was 1.31%, the FRET efficiency ([2]; 0.4% Tris NTA, Exp2) was 1.55% and the FRET efficiency ([2]; 0.4% Tris NTA, Mean, n = 2) was 1.43%. For the same molecule, the FRET efficiency ([2]; 0.6% Tris NTA, Exp1) was 0.86%, the FRET efficiency ([2]; 0.6% Tris NTA, Exp2) was 0.95% and the FRET efficiency ([2]; 0.6% Tris NTA, Mean, n = 3 (His6-SUMO n = 2)) was 0.91%. The FRET efficiency ([2]; 0.8% Tris NTA, Exp1) was 0.27%, the FRET efficiency ([2]; 0.8% Tris NTA, Exp2) was 0.30% and the FRET efficiency ([2]; 0.8% Tris NTA, Mean, n = 3 (His6-SUMO n = 2)) was 0.29%. The FRET efficiency ([2]; 1% Tris NTA, Exp1) was 0.57%, the FRET efficiency ([2]; 1% Tris NTA, Exp2) was 0.59% and the FRET efficiency ([2]; 1% Tris NTA, Exp3) was 0.56%. It also gave an FRET efficiency ([2]; 1% Tris NTA, Mean, n = 3 (R286W-His6 n = 4)) of 0.57%, an FRET efficiency ([2]; 2% Tris NTA, Exp1) of 0.56% and an FRET efficiency ([2]; 2% Tris NTA, Exp2) of 0.41%. The FRET efficiency ([2]; 2% Tris NTA, Mean, n = 2) was 0.49%, the FRET efficiency ([2]; Tris 0.40 %, mean) was 1.43% and the FRET efficiency ([2]; Tris 0.60 %, mean) was 0.91%. For the same molecule, the FRET efficiency ([2]; Tris 0.80 %, mean) was 0.28%, the FRET efficiency ([2]; Tris 1.00 %, mean) was 0.57% and the FRET efficiency ([2]; Tris 2.00 %, mean) was 0.49%. For the same molecule, the FRET efficiency ([2]; […] Tris NTA, Exp1) was 1.47%, the FRET efficiency ([2]; […] Tris NTA, Exp2) was 1.00% and the FRET efficiency ([2]; […] Tris NTA, mean, n = 2) was 1.23%. For the same molecule, the “Diffusion Coefficient” value ([3]; 0.1% Tris NTA, replicate Exp1) was 0.47 µm2/s, the “Diffusion Coefficient” value ([3]; 0.1% Tris NTA, replicate Exp2) was 0.69 µm2/s and the “Diffusion Coefficient” value ([3]; 0.4% Tris NTA, replicate Exp1) was 0.55 µm2/s. For the same molecule, the “Diffusion Coefficient” value ([3]; 0.4% Tris NTA, replicate Exp2) was 0.53 µm2/s, the “Diffusion Coefficient” value ([3]; 0.4% Tris NTA, replicate Exp3) was 0.48 µm2/s and the “Diffusion Coefficient” value ([3]; 0.6% Tris NTA, replicate Exp1) was 0.58 µm2/s. For the same molecule, the “Diffusion Coefficient” value ([3]; 0.6% Tris NTA, replicate Exp2) was 0.54 µm2/s, the “Diffusion Coefficient” value ([3]; 0.6% Tris NTA, replicate Exp3) was 0.58 µm2/s and the “Diffusion Coefficient” value ([3]; 0.6% Tris NTA, replicate Exp4) was 0.63 µm2/s. The “Diffusion Coefficient” value ([3]; 0.8% Tris NTA, mean) was 0.52 µm2/s, the “Diffusion Coefficient” value ([3]; 0.8% Tris NTA, replicate Exp1) was 0.56 µm2/s and the “Diffusion Coefficient” value ([3]; 0.8% Tris NTA, replicate Exp2) was 0.53 µm2/s. The “Diffusion Coefficient” value ([3]; 0.8% Tris NTA, replicate Exp3) was 0.48 µm2/s, the “Diffusion Coefficient” value ([3]; 0.8% Tris NTA, replicate Exp4) was 0.52 µm2/s and the “Diffusion Coefficient” value ([3]; 1% Tris NTA, mean) was 0.57 µm2/s. The “Diffusion Coefficient” value ([3]; 1% Tris NTA, replicate Exp1) was 0.45 µm2/s, the “Diffusion Coefficient” value ([3]; 1% Tris NTA, replicate Exp2) was 0.57 µm2/s and the “Diffusion Coefficient” value ([3]; 1% Tris NTA, replicate Exp3) was 0.66 µm2/s. For the same molecule, the “Diffusion Coefficient” value ([3]; 1% Tris NTA, replicate Exp4) was 0.60 µm2/s, the “Diffusion Coefficient” value ([3]; 1% Tris NTA, replicate Exp5) was 0.57 µm2/s and the “Diffusion Coefficient” value ([3]; 1% Tris NTA, replicate Exp6) was 0.68 µm2/s. The “Diffusion Coefficient” value ([3]; 1% Tris NTA, replicate Exp7) was 0.62 µm2/s, the “Diffusion Coefficient” value ([3]; 1% Tris NTA, replicate Exp8) was 0.43 µm2/s and the Diffusion Coefficient ([3]; Tris 0.10 %) was 0.58 µm2/s. It also gave a Diffusion Coefficient ([3]; Tris 0.40 %) of 0.52 µm2/s, a Diffusion Coefficient ([3]; Tris 0.60 %) of 0.58 µm2/s and a Diffusion Coefficient ([3]; Tris 0.80 %) of 0.52 µm2/s. It also gave a Diffusion Coefficient ([3]; Tris 1.00 %) of 0.57 µm2/s, a Diffusion Coefficient ([3]; Tris 2.00 %) of 0.58 µm2/s and a Diffusion Coefficient ([3]; Tris […]) of 0.56 µm2/s. For the same molecule, the “Diffusion Coefficient” value ([3]; […] Tris NTA, mean (n: WT 2, R286W 3, SUMO 3)) was 0.56 µm2/s, the “Diffusion Coefficient” value ([3]; […] Tris NTA, replicate Exp1) was 0.47 µm2/s and the “Diffusion Coefficient” value ([3]; […] Tris NTA, replicate Exp2) was 0.67 µm2/s. For the same molecule, the “Diffusion Coefficient” value ([3]; […] Tris NTA, replicate Exp3) was 0.53 µm2/s.

B2: FtsA WT (1-405)-6xHis (domain or fragment, E. coli, UniProt P0ABH0 1-405, looked up)
chain: MIKATDRKLVVGLEIGTAKVAALVGEVLPDGMVNIIGVGSCPSRGMDKGGVNDLESVVKCVQRAIDQAELMADCQISSVYLALSGKHISCQNEIGMVPISEEEVTQEDVENVVHTAKSVRVRDEHRVLHVIPQEYAIDYQEGIKNPVGLSGVRMQAKVHLITCHNDMAKNIVKAVERCGLKVDQLIFAGLASSYSVLTEDERELGVCVVDIGGGTMDIAVYTGGALRHTKVIPYAGNVVTSDIAYAFGTPPSDAEAIKVRHGCALGSIVGKDESVEVPSVGGRPPRSLQRQTLAEVIEPRYTELLNLVNEEILQLQEKLRQQGVKHHLAAGIVLTGGAAQIEGLAACAQRVFHTQVRIGAPLNITGLTDYAQEPYYSTAVGLLHYGKESHLNGEAEVEKRVTASV
modifications: Cy3 or Cy5 at the N-terminus in the labelled form (sortagging as for native FtsA)
notes: FtsA, E. coli, residues 1-405; plasmid pNB4; Attached to membranes through Tris-NTA lipids by its His tag; also called FtsA-His6; FtsA WT-His6; source: E. coli BL21, purified (as native FtsA); not shown: TwinStrep-SUMO, N-terminal, cleaved; 5xGlycine tag, N-terminal, kept; His6, C-terminal, kept
B2: binds [4].
